Reference: US20250269046A1, “CELLULAR UPTAKE OF LARGE BIOMOLECULES ENABLED BY CELL-SURFACE-REACTIVE CELL-PENETRATING PEPTIDE ADDITIVES” (FORSCHUNGSVERBUND BERLIN E.V., priority 2021, published 2025)

Assays:
[1] = molecular target: Lifeact-mVenus (GFP mutant, expressed in transfected HeLa CCL-2 cells); experiment: confocal microscopy of live HeLa CCL-2 cells transfected with Lifeact-mVenus after delivery of 500 nM antibody with TNB-R10; colocalization of antibody and mVenus signals
[2] = molecular target: endogenous mitochondrial receptor TOMM20 (in HeLa CCL-2 cells) (UniProt Q15388); experiment: cell-based or functional assay
endogenous mitochondrial receptor TOMM20 (in HeLa CCL-2 cells), sequence (Q15388 whole entry): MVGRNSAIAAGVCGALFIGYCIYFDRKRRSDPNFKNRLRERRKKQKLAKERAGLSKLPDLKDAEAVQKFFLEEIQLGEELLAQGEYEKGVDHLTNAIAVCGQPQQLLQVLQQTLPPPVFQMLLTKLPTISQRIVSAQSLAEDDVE

pearson correlation coefficient (PCC) of colocalization [1] | pearson correlation coefficient (PCC) of the colocalization of the delivered antibody with the mitochondrial marker MitoTracker Red CMXRos [2] | Substance
0.8 | – | Alexa Fluor 594 anti-GFP Antibody, Clone 1GFP63
– | 0.58 | Anti-Tom20/Tomm20, clone 2F8.1 (antibody)
